Like-named read-outs stand apart in the source and are kept apart here.
Tests used:
[1] = biological target: CCL11_HUMAN (human, UniProt P51671 24-97); test: BLI
[2] = biological target: T1, CCL24_HUMAN (human, UniProt O00175 27-104); test: BLI
T1 chain: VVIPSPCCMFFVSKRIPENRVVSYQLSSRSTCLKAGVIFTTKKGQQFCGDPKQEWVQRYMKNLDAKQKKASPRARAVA

[3] = biological target: T2, CCL4L1_HUMAN (human, UniProt Q8NHW4 24-92); test: BLI
T2 chain: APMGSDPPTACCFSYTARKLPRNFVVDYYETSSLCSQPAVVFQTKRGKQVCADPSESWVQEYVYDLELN

[4] = biological target: T3, CCL19_HUMAN (human, UniProt Q99731 22-98); test: BLI
T3 chain: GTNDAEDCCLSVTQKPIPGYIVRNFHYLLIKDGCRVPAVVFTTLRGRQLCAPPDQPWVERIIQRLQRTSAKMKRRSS

[5] = biological target: T4, CCL17_HUMAN (human, UniProt Q92583 24-94); test: BLI
T4 chain: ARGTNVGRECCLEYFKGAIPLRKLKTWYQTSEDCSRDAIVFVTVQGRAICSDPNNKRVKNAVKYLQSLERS

[6] = biological target: T5, CCL4_HUMAN (human, UniProt P13236 24-92); test: BLI
T5 chain: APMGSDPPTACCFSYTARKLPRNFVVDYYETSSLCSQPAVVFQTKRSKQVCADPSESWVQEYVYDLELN

[7] = biological target: T6, CCL1_HUMAN (human, UniProt P22362 24-96); test: BLI
T6 chain: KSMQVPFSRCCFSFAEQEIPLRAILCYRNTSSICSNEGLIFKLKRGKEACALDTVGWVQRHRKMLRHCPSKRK

[8] = biological target: T7, CCL3L1_HUMAN (human, UniProt P16619 24-93); test: BLI
T7 chain: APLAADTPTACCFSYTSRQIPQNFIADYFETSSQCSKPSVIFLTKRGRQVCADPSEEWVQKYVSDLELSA

[9] = biological target: T8, CCL23_HUMAN (human, UniProt P55773 22-120); test: BLI
T8 chain: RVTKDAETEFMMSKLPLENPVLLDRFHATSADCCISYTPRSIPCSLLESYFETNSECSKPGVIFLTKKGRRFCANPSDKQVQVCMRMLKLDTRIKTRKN

[10] = biological target: CCL7_HUMAN (human, UniProt P80098 24-99); test: BLI
CCL7_HUMAN, sequence (P80098 24-99): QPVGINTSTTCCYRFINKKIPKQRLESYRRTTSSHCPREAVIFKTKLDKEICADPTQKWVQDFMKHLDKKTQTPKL

[11] = biological target: CCL2_HUMAN (human, UniProt P13500 24-99); test: BLI
CCL2_HUMAN, sequence (P13500 24-99): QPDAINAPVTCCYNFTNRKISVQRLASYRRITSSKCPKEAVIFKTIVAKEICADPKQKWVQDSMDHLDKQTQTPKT

[12] = biological target: T9, CCL22_HUMAN (human, UniProt O00626 25-93); test: BLI
T9 chain: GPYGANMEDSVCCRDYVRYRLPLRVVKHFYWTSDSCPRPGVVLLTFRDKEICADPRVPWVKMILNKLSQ

[13] = biological target: T10, CCL18_HUMAN (human, UniProt P55774 21-89); test: BLI
T10 chain: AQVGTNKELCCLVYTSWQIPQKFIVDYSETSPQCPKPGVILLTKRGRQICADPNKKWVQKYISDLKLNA

[14] = biological target: T11, CCL14_HUMAN (human, UniProt Q16627 22-93); test: BLI
T11 chain: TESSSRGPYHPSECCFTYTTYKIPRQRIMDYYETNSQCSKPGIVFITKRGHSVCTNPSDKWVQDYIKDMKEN

[15] = biological target: CCL20_HUMAN (human, UniProt P78556 27-96); test: BLI
CCL20_HUMAN, sequence (P78556 27-96): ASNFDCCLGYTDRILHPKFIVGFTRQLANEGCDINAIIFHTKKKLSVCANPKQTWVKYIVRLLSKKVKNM

[16] = biological target: T12, CCL21_HUMAN (human, UniProt O00585 24-134); test: BLI
T12 chain: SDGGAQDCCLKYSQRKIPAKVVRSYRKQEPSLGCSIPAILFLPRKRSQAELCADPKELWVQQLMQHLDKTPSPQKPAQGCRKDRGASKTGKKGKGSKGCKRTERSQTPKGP

[17] = biological target: CCL13_HUMAN (human, UniProt Q99616 24-98); test: BLI
CCL13_HUMAN, sequence (Q99616 24-98): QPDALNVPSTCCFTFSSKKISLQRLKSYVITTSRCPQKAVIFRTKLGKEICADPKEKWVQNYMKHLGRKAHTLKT

[18] = biological target: T13, CCL15_HUMAN (human, UniProt Q16663 22-113); test: BLI
T13 chain: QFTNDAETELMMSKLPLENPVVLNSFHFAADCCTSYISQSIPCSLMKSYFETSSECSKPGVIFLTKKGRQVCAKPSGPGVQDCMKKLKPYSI

[19] = biological target: T14, CCL16_HUMAN (human, UniProt O15467 24-120); test: BLI
T14 chain: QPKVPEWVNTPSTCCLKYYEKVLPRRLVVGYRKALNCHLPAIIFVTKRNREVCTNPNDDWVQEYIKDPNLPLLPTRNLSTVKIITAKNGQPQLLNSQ

[20] = biological target: T15, CCL3_HUMAN (human, UniProt P10147 24-92); test: BLI
T15 chain: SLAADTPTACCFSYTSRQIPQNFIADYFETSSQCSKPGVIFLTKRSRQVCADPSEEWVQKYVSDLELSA

[21] = biological target: T16, CCL8_HUMAN (human, UniProt P80075 24-99); test: BLI
T16 chain: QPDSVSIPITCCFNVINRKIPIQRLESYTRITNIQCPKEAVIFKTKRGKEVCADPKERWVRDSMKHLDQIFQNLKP

[22] = biological target: T17, CCL5_HUMAN (human, UniProt P13501 24-91); test: BLI
T17 chain: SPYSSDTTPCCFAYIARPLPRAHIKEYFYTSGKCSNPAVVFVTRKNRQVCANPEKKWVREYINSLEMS

[23] = biological target: T18, CXCL3_HUMAN (human, UniProt P19876 35-107); test: BLI; previously obtained data
T18 sequence (P19876 35-107): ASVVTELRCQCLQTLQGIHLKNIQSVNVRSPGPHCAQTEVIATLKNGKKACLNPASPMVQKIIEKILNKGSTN

[24] = biological target: T18, CXCL3_HUMAN; test: BLI
[25] = biological target: T19, CXCL8_HUMAN (human, UniProt P10145 28-99); test: BLI
T19 sequence (P10145 28-99): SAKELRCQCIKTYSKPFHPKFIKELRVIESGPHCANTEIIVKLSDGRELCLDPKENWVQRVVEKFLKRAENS

[26] = biological target: T20, CXCL1_HUMAN (human, UniProt P09341 35-107); test: BLI
T20 sequence (P09341 35-107): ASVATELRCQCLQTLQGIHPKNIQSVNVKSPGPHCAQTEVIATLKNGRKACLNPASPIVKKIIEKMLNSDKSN

[27] = biological target: CXCL2_HUMAN; test: BLI
[28] = biological target: CXCL6_HUMAN; test: BLI
[29] = biological target: CXCL5_HUMAN; test: BLI
[30] = biological target: CXCL5; test: BLI
[31] = biological target: CXCL6; test: BLI
[32] = biological target: CXCL2; test: BLI
[33] = biological target: T19, CXCL8_HUMAN; test: BLI; remark: listed apart in the source
[34] = biological target: T20, CXCL1_HUMAN; test: BLI; remark: listed apart in the source
[35] = biological target: CXCL5; test: BLI; remark: listed apart in the source
[36] = biological target: CXCL2; test: BLI; remark: listed apart in the source
[37] = biological target: CXCL6; test: BLI; previously obtained data

CCL11_HUMAN, sequence (P51671 24-97): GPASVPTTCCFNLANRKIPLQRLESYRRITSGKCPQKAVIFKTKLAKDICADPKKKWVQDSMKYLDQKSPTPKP

B1: P991_AMBCA (other)
chain: ENGEGTTQPDYDNSTDYYNYEDFKCTCPAPHLNNTNGTVMKPIGCYYTCNVTRCTAPDTYPCYNLTEHQAKNLTTSPTTLCAVGNCDHGICVPNGTKELCFKAPNLEE
[1]
  Kd: 1.9 nM
[2]
  Kd: 5.42 nM
[3]
  Kd: 1.34 nM
[4]
  Kd: 12 nM
[5]
  Kd: 7.37 nM
[6]
  Kd: 3.68 nM
[7]
  Kd: 8.6 nM
[8]
  Kd: 2.99 nM
[9]
  Kd: 5.87 nM
[10]
  Kd: 0.241 nM
[11]
  Kd: 24.7 nM
[12]
  Kd: 3.01 nM
[13]
  Kd: 0.252 nM
[14]
  Kd: 0.711 nM
[15]
  Kd: 15.4 nM
[16]
  Kd: 26.1 nM
[17]
  Kd: 0.191 nM
[18]
  Kd: 109 nM
[19]
  Kd: 0.536 nM
[20]
  Kd: 2.24 nM
[21]
  Kd: 15.9 nM
[22]
  Kd: 0.869 nM

B2: P1156_IXORI (other)
chain: ADDDNELFTVQYCGMNCTKDEGGTWTGCTGKKEGCKCYHESGKNYGLCLSTEYTDFSQYGNPSDSEIEAAKPKRSDTLSH
[23]
  Kd: 70.4 nM
[24]
  Kd: 70.4 nM
[25]
  Kd: 2.9 nM
[26]
  Kd: 5.8 nM
[27]
  Kd: 17 nM
[28]
  Kd: 117 nM
[29]
  Kd: 71.9 nM
[30]
  Kd: 29.8 nM
[31]
  Kd: 62.7 nM
[32]
  Kd: 50.6 nM
[33]
  Kd: 4.84 nM
[34]
  Kd: 6.53 nM

B3: P1156 (other)
chain: ADDDNELFTVQYCGMNCTKDEGGTWTGCTGKKEGCKCYHESGKNYGLCLSTEYTDFSQYGNPSDSEIEAAKPKRSDTLSH
[35]
  Kd: 39.9 nM
[36]
  Kd: 30.3 nM
[37]
  Kd: 62.7 nM
